For 38 variants, self-cleavage results are on record in the RNAGym collection of RNA variant scans (doi:10.7554/elife.80360).

First the molecules themselves.
B1: Hairpin Ribozyme (parent)
chain: GUCCUCUUUCACGUGCGCGUGAAAGAGAGAAGUGAACCAGAGAAACACACGUUGUGGUAUAUUACCUGGUA

Variants of B1 are the subject of this data set. As to the kind of experiment: self-cleavage, relative activity (ratio to wild type); higher = more cleavage; co-transcriptional.
Regarding GUCCUCUUUCACGGGCGCGUGAAAGAGAGAAGUGAACCAGAGAAACACACGUUGUGGUAUAUGACCUGGUA, the self-cleavage turned out to be 0.153. With GUCCUCUUUCACGGGCGCGUGAAAGAGAGAAGUGAACCAGAGAAACACACGUUGUGGUAUAUCACCUGGUA the figure was 0.175; with GUCCUCUUUCACGGGCGCGUGAAAGAGAGAAGUGAACCAGAUAAACACACGUUGUGGUAUAUUACCUGGUA, 0.163; with GUCCUCUUUCACGUACGCGUGAAAGAGAGAAGUGAUCCAGAGAAACACACGUUGUGGUAUAUUACCUGGUA, 0.673. Regarding GUCCUCUUUCACGGGCGCGUGAAAGAGAGAAGUGAACCAGAGAAACACACGUUGUGGUAUAAUACCUGGUA, the self-cleavage is 0.209. In the case of GUCCUCUUUCACGGGCGCGUGAAAGAGAGAAGUGAACCAGAGAAACACACGUUGUGGCAUAUUACCUGGUA, the self-cleavage is 0.881. GUCCUCUUUCACGGGCGCGUGAAAGAGAGAAGUGAACCAGAGAAACACACGUUGUGGUAUAUUACCUCGUA: the self-cleavage came out at 0.0739. For GUCCUCUUUCACGGGCGCGUGAAAGAGAGAAGUGAACCAGAGAAACACACGUUGUGGUAUAUUACCUGUUA, the self-cleavage is 0.2. Turning to GUCCUCUUUCACGUACGCGUGAAAGAGAGAAGUGAACCGGAGAAACACACGUUGUGGUAUAUUACCUGGUA, the self-cleavage was 0.287. As for GUCCUCUUUCACGUACGCGUGAAAGAGAGAAGUGAACCAGCGAAACACACGUUGUGGUAUAUUACCUGGUA, the self-cleavage is 1.08. As to GUCCUCUUUCACGGGCGCGGGAAAGAGAGAAGUGAACCAGAGAAACACACGUUGUGGUAUAUUACCUGGUA, the self-cleavage turned out to be 0.736.

For the variant GUCCUCUUUCACGUACGCGUGAUAGAGAGAAGUGAACCAGAGAAACACACGUUGUGGUAUAUUACCUGGUA, the self-cleavage came to 0.846.

For GUCCUCUUUCACGUACGCGUGAAAGAGAGUAGUGAACCAGAGAAACACACGUUGUGGUAUAUUACCUGGUA, the self-cleavage was 0.109. GUCCUCUUUCACGUACGCGUGAAAGAGAGCAGUGAACCAGAGAAACACACGUUGUGGUAUAUUACCUGGUA: the self-cleavage is 0.141.

Take GUCCUCUUUCACGGGCGCGUGAAAGAGAGAAGUGAACCAGAGAAACACACGUUGUGAUAUAUUACCUGGUA: the self-cleavage is 0.146. With GUCCUCUUUCACGGGCUCGUGAAAGAGAGAAGUGAACCAGAGAAACACACGUUGUGGUAUAUUACCUGGUA the figure was 0.513; with GUCCUCUUUCACGGGCCCGUGAAAGAGAGAAGUGAACCAGAGAAACACACGUUGUGGUAUAUUACCUGGUA, 0.415; with GUCCUCUUUCACGGUCGCGUGAAAGAGAGAAGUGAACCAGAGAAACACACGUUGUGGUAUAUUACCUGGUA, 0.796. For GUCCUCUUUCACGUACGCGUGAAAGAGAGAAGUGUACCAGAGAAACACACGUUGUGGUAUAUUACCUGGUA, the self-cleavage was 0.52. For the variant GUCCUCUUUCACGUACGCGUGAAAGAGAGAAGUGCACCAGAGAAACACACGUUGUGGUAUAUUACCUGGUA, the self-cleavage turned out to be 0.806.

In the case of GUCCUCUUUCACGGGCGCGUCAAAGAGAGAAGUGAACCAGAGAAACACACGUUGUGGUAUAUUACCUGGUA, the self-cleavage was found to be 0.342.

Turning to GUCCUCUUUCACGGGCGCGUAAAAGAGAGAAGUGAACCAGAGAAACACACGUUGUGGUAUAUUACCUGGUA, the self-cleavage was determined as 0.686. Take GUCCUCUUUCACGGGCGCGUGAAAGAGAGAAGUGAACCAGAGAAACACACAUUGUGGUAUAUUACCUGGUA: the self-cleavage is 0.989. On to GUCCUCUUUCACGGGCGCGUGAAAGAGAGAAGUGAACCAGAGAAACACACGUGGUGGUAUAUUACCUGGUA, for which the self-cleavage stood at 0.287. For the variant GUCCUCUUUCACGGGCGCUUGAAAGAGAGAAGUGAACCAGAGAAACACACGUUGUGGUAUAUUACCUGGUA, the self-cleavage turned out to be 0.893. As to GUCCUCUUUCACGGGCGCGUGAAAGAGAGAAGUGAACCAGAGAAACACACGUUGUGGUAAAUUACCUGGUA, the self-cleavage was determined as 0.641. With GUCCUCUUUCACGGGCGCGUGAAAGAGAGAAGUGAACCAGAGAAACACACGUUGUGGUAGAUUACCUGGUA the figure was 0.58; with GUCCUCUUUCACGUACGCGUGGAAGAGAGAAGUGAACCAGAGAAACACACGUUGUGGUAUAUUACCUGGUA, 1.11; with GUCCUCUUUCACGUACGCGUGCAAGAGAGAAGUGAACCAGAGAAACACACGUUGUGGUAUAUUACCUGGUA, 0.821. GUCCUCUUUCACGUACGCGUGUAAGAGAGAAGUGAACCAGAGAAACACACGUUGUGGUAUAUUACCUGGUA: the self-cleavage was 0.699. Turning to GUCCUCUUUCACGGGCGCGUGAAAGACAGAAGUGAACCAGAGAAACACACGUUGUGGUAUAUUACCUGGUA, the self-cleavage amounted to 0.0943. Consider GUCCUCUUUCACGGGCGCGUGAAAGAGAGAAGUGAACCAGAGAAACACACGUUGUGGUAUAUUACUUGGUA, for which the self-cleavage came to 0.217. For GUCCUCUUUCACGGGCGCGUGAAAGAGAGAAGUGAACCAGAGAAACACACGUUGUUGUAUAUUACCUGGUA, the self-cleavage stood at 0.122. On to GUCCUCUUUCACGUACGCGUGAAAGAGAGAAGUGAACCAGAGCAACACACGUUGUGGUAUAUUACCUGGUA, for which the self-cleavage was determined as 0.162. On to GUCCUCUUUCACGUACGCGUGAAAGGGAGAAGUGAACCAGAGAAACACACGUUGUGGUAUAUUACCUGGUA, for which the self-cleavage came out at 0.835. In the case of GUCCUCUUUCACGUACGCGUGAAAGUGAGAAGUGAACCAGAGAAACACACGUUGUGGUAUAUUACCUGGUA, the self-cleavage was found to be 0.638. Regarding GUCCUCUUUCACGGGCGCGUGAAAGAGAGAAGUUAACCAGAGAAACACACGUUGUGGUAUAUUACCUGGUA, the self-cleavage stood at 1.11. The figure for GUCCUCUUUCACGGGCGCGUGAAAAAGAGAAGUGAACCAGAGAAACACACGUUGUGGUAUAUUACCUGGUA is 0.384.
